The target of experiment [1] is T1, recombinant human MMP-7 activated form (catalytic domain) (human, UniProt P09237 95-267).
T1 construct: domain: catalytic domain; Contains the catalytic zinc; also called MMP-7 active enzyme
T1 sequence (looked up): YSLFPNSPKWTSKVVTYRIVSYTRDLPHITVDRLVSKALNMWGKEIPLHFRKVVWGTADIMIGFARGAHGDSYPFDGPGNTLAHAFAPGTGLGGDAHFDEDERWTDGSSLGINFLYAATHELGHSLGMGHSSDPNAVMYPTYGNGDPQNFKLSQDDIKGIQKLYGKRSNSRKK
Put plainly: ELISA on MMP-coated plate, four-parametric sigmoidal fit. As to the method:
(§1) MMP-7 Elisa binding assay: A 96-well plate (Nunc) was coated with MMP at 5 mg/ml. […] The bound Fab fragment/full length was detected using a goat anti-Fab/anti-mouse antibody followed by peroxidase-conjugated bovine anti-goat antibody according to standard procedures. A four-parametric sigmoidal curve-fitting analysis was used to calculate the half-maximal effective concentration.
(§2) The lack of binding to a panel of other MMPs helped measure the novel antibody's affinity to epitopes specifically unique to MMP-7.
In general terms: An ELISA detects its analyte on a solid surface through an enzyme-linked reagent.

The target of experiment [2] is MMP-13 (UniProt P45452 104-471, limits assumed). Put plainly: ELISA, MMP-coated plate. How it is done:
as §1, §2

The target in experiment [3] is MMP-12 (UniProt P39900 106-263, limits assumed). Put plainly: ELISA, MMP-coated plate. How it is done: as §1, §2
MMP-12, sequence (P39900 106-263 limits assumed): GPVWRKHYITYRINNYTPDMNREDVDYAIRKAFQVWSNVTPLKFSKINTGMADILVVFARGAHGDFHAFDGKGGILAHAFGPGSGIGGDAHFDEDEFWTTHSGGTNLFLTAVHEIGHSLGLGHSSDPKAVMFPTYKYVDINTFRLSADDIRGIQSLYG
Experiment [4] deals with MMP-9 (UniProt P14780 107-707, limits assumed). Put plainly: ELISA, MMP-coated plate. How it is done: as §1, §2
MMP-9, sequence (P14780 107-707 limits assumed): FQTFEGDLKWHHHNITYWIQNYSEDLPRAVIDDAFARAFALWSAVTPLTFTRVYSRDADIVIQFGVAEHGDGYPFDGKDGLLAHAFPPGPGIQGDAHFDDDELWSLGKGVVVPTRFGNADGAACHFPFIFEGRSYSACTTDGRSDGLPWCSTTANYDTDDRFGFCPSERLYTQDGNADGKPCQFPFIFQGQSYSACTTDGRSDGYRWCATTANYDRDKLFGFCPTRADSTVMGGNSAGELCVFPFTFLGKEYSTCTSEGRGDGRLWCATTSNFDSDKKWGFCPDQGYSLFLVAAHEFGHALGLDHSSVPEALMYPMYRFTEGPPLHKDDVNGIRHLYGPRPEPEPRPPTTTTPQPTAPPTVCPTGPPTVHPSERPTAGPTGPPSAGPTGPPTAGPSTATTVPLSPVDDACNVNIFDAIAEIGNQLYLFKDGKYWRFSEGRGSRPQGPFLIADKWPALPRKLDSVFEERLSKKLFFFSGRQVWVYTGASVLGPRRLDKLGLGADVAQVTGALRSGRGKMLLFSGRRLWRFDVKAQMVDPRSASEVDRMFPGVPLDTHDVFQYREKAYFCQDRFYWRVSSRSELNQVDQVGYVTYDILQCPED
Experiment [5] concerns the target MMP-14 (UniProt P50281 112-538, limits assumed). Put plainly: ELISA, MMP-coated plate. As to the method:
as §1, §2

In experiment [6] the target is T2, MMP-7 zymogen / pro form (UniProt P09237 18-267, limits assumed).
T2 construct: domain: zymogen/pro form; Recombinant zymogen on the dot blot and in ELISA; also called MMP-7 pro form; zymogen form of the enzyme
T2 sequence (looked up): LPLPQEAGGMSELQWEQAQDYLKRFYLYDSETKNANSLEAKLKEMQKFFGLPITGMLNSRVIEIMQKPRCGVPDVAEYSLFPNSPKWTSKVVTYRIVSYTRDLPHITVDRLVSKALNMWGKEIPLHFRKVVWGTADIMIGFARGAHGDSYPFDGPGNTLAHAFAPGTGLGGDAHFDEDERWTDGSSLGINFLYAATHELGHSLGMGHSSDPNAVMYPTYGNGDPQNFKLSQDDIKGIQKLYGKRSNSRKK
Put plainly: dot blot. How it is done: A dot blot was performed by immobilizing 1, 1.5 and 2 μg zymogen and activated MMP-7 recombinant enzyme on nitrocellulose membrane pre wetted with TBST using a vacuum based manifold 96 well dot-blot system (GE 10447900 Minifold dot blot). The blocking was performed for 1 hour at room temperature with 3% BSA in TBST. The membrane was then probed for binding by antibody eluted in the earlier step by incubating overnight. The anti MMP-7 mAb used was at 2 ug/ml concentration in TBST. The membrane after 3 washes in TBST was incubated with goat anti mouse HRP antibody and developed using ECL to determine the selectivity of binding towards catalytic form only.
Only antibodies that were capable of binding to the activated form of MMP-7 and not the zymogen were selected for further development (i.e. selected for fusion and developed to generate monoclonal antibodies). This was carried out by dot blot analysis using a nitrocellulose membrane coated with varying concentrations of active MMP-7 and its zymogen respectively.

Experiment [7] deals with T1, recombinant human MMP-7 activated form …. The experiment is described as follows: enzyme inhibition, fluorogenic peptide Mca-Pro-Leu-Gly-Leu-Dpa-Ala-Arg-NH2, 10 nM MMP-7, 37 C. How it is done:
The enzymatic reaction was initiated by addition of the fluorogenic peptide to a final concentration of 10 μM. Fluorescence was recorded immediately and continuously for 30 min.
Remarkably, considering that the immunization booster also included the common zinc motif, the antibody is fully selective for MMP-7. […] Simultaneously the effect of the antibody on catalytic activity of related MMPs was measured. The catalytic activities in vitro of MMP-9, -14 and -12 were either not affected or in the case of MMP-14 only negligibly affected by the anti MMP-7 Fab treatment (FIG. 2D).

The results in this text go back to patent US20220106405A1 (YEDA RESEARCH AND DEVELOPMENT, published 2022).

B1: GSM-192 monoclonal antibody (antibody, V domains shown)
VH: EVQLQQSGPELVKPGASVKIPCKASGYTFTDYNMDWMKQSHGKSLEWIGHINPNNGGTFYNQKFKDKATFIVDKSSNTAYMELRSLTSEDTAVYFCARGGGLRRGPFAYWGQGTLVTVS
VL: DIVTQSPASLAVSLGQRATISCRASESFDSYGNTFVHWYQQKPGQPPKLLIYLVSNLESGVPAGFRGRGSRTDFTLTIDPVEADDAATYYCQQNNEDPYTFGGGTKLEIKR
notes: also called anti MMP-7 mAb; anti MMP-7 Ab
The term Kd denotes the concentration at which binding is half-saturated. Regarding B1, the Kd in experiment [1] was found to be 43.1 nM. For the same molecule, the binding result in experiment [2], in experiment [3], in experiment [4], in experiment [5] and in experiment [6] was “no binding” each time.

B2: GSM-192 Fab fragment (Fab, V domains shown)
VH: EVQLQQSGPELVKPGASVKIPCKASGYTFTDYNMDWMKQSHGKSLEWIGHINPNNGGTFYNQKFKDKATFIVDKSSNTAYMELRSLTSEDTAVYFCARGGGLRRGPFAYWGQGTLVTVS
VL: DIVTQSPASLAVSLGQRATISCRASESFDSYGNTFVHWYQQKPGQPPKLLIYLVSNLESGVPAGFRGRGSRTDFTLTIDPVEADDAATYYCQQNNEDPYTFGGGTKLEIKR
notes: also called anti MMP-7 Fab
As a reminder, the Ki is the dissociation constant of the complex between target and ligand, obtained from inhibition or displacement. As to B2, the Ki in experiment [7] is 132 nM.
